Test results published in doi:10.1101/2025.08.28.672867, “Catalytic pocket of Clr4 (Suv39h) methyltransferase serves as a substrate receptor for Cullin 4-dependent histone H3 ubiquitination” (bioRxiv, 2025).

T1: 6×His-MBP-Raf1 (S. pombe, UniProt O74910 1-638)
T1 construct: Raf1 (Rik1-associated factor 1, DDB2 homolog), S. pombe; Expressed from one bacmid with Raf2, Rik1 and Cul4 and purified with them; A TEV site lies between MBP and Raf1; also called Raf1-MBP; Raf1 (DDB2 homolog); source: Hi5 insect cells (baculovirus), purified (Ni-NTA, amylose, SEC) together with Raf2, Rik1 and Cul4; not shown: His6, N-terminal, kept; MBP, N-terminal, kept
T1 sequence (looked up): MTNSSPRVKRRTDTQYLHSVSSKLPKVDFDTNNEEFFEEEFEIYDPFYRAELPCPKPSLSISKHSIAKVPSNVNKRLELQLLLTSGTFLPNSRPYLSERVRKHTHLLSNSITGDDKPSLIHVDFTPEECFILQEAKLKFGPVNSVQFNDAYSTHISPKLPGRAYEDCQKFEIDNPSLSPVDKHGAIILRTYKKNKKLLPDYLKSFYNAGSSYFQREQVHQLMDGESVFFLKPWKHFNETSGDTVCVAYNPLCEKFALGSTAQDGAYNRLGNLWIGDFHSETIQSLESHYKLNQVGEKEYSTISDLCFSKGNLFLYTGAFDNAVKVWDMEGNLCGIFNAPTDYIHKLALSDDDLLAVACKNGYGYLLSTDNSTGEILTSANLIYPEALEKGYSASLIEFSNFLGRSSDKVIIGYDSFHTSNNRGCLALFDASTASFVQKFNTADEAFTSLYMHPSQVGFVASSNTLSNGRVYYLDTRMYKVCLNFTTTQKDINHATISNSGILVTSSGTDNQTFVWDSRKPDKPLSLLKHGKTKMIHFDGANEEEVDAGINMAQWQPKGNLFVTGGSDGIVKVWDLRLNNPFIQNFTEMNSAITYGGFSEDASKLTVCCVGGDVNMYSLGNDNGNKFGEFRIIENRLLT

B1: Clr4N-Set2 (Clr4 chromodomain-hinge fused to the SET domain of S. pombe Set2) (other, UniProt O60016 1-192, looked up)
chain: MSPKQEEYEVERIVDEKLDRNGAVKLYRIRWLNYSSRSDTWEPPENLSGCSAVLAEWKRRKRRLKGSNSDSDSPHHASNPHPNSRQKHQHQTSKSVPRSQRFSRELNVKKENKKVFSSQTTKRQSRKQSTALTTNDTSIILDDSLHTNSKKLGKTRNEVKEESQKRELVSNSIKEATSPKTSSILTKPRNPSLFHHLDSAKDKALTTFEEIQECQYASANIGKPPENEAMICDCRPHWVDGVNVACGHGSNCINRMTSIECTDEDNVCGPSCQNQRFQRHEFAKVDVFLTEKKGFGLRADANLPKDTFVYEYIGEVIPEQKFRKRMRQYDSEGIKHFYFMMLQKGEYIDATKRGSLARFCNHSCRPNCYVDKWMVGDKLRMGIFCKRDIIRGEELTFDYNVDRYGAQAQPCYCGEPCCVGYIGGKTQTEAQSK
notes: Clr4, S. pombe, chromodomain and hinge region, amino acids 1-192 (GST-Clr4 ΔSET); Set2 H3K36 methyltransferase, S. pombe, SET domain, amino acids 90-330, fused to the C-terminus of Clr4 ΔSET; also called GST-Clr4 CD-Hinge-Set2; GST-Clr4N-Set2
B2: Clr4 ΔSET (amino acids 1–192) (domain or fragment, S. pombe, UniProt O60016 1-192, looked up)
chain: MSPKQEEYEVERIVDEKLDRNGAVKLYRIRWLNYSSRSDTWEPPENLSGCSAVLAEWKRRKRRLKGSNSDSDSPHHASNPHPNSRQKHQHQTSKSVPRSQRFSRELNVKKENKKVFSSQTTKRQSRKQSTALTTNDTSIILDDSLHTNSKKLGKTRNEVKEESQKRELVSNSIKEATSPKTSSILTKPRNPS
notes: Clr4, S. pombe, chromodomain and hinge region, amino acids 1-192; also called GST-Clr4 ΔSET

What was measured:
6×His-MBP-Raf1 = molecular target: T1, 6×His-MBP-Raf1; experiment: pull-down; MBP-Raf1 held on amylose resin and incubated with Clr4 FL or fragments (legend: 'MBP pulldown assays of CLRC subunits'); 1:1 molar ratio, 30 min on ice, resin 1 h at 4 °C; wash 20 mM HEPES pH 7.5, 150 mM NaCl, 0.02% Triton X-100; SDS-PAGE; conditions: both partners purified
[1] = molecular target: T2, CLRC complex lacking Clr4 (CLRC^-Clr4): 6×His-MBP-Raf1, Raf2, Rik1 and Cul4 (S. pombe, UniProt O74910 1-638; O74560 1-636; Q10426 1-1040; O14122 1-734); experiment: as above; conditions: both partners purified
T2 construct: Raf1 (DDB2 homolog), S. pombe; as the chain of m2; Raf2, S. pombe; as the chain of m3; Rik1 (DDB1 homolog), S. pombe; as the chain of m4; Cullin 4, S. pombe; as the chain of m5; also called four-subunit CLRC complex; CLRC minus Clr4; source: Hi5 insect cells (baculovirus, single bacmid), purified (Ni-NTA, amylose, SEC on Superose 6 Increase); not shown: His6, N-terminal, kept; MBP, N-terminal, …
T2 sequence (O74560 whole entry, chain 2 of 3): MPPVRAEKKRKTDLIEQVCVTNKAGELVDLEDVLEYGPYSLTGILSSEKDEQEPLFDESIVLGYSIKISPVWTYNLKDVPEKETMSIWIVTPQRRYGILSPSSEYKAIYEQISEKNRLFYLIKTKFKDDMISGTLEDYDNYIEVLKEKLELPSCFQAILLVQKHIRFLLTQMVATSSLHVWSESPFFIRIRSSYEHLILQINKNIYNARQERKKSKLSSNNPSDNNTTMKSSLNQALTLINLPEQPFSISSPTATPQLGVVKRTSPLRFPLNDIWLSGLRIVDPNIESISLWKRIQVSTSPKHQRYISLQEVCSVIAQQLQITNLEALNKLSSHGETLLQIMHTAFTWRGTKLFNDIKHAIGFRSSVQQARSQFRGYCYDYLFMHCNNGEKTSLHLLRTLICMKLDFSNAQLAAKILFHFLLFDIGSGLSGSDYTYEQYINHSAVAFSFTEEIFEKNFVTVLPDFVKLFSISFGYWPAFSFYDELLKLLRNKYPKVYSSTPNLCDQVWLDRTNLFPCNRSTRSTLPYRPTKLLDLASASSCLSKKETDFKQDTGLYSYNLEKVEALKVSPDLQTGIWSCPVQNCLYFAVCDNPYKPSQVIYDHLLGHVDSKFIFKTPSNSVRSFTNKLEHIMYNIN
T2 sequence (Q10426 whole entry, chain 3 of 3): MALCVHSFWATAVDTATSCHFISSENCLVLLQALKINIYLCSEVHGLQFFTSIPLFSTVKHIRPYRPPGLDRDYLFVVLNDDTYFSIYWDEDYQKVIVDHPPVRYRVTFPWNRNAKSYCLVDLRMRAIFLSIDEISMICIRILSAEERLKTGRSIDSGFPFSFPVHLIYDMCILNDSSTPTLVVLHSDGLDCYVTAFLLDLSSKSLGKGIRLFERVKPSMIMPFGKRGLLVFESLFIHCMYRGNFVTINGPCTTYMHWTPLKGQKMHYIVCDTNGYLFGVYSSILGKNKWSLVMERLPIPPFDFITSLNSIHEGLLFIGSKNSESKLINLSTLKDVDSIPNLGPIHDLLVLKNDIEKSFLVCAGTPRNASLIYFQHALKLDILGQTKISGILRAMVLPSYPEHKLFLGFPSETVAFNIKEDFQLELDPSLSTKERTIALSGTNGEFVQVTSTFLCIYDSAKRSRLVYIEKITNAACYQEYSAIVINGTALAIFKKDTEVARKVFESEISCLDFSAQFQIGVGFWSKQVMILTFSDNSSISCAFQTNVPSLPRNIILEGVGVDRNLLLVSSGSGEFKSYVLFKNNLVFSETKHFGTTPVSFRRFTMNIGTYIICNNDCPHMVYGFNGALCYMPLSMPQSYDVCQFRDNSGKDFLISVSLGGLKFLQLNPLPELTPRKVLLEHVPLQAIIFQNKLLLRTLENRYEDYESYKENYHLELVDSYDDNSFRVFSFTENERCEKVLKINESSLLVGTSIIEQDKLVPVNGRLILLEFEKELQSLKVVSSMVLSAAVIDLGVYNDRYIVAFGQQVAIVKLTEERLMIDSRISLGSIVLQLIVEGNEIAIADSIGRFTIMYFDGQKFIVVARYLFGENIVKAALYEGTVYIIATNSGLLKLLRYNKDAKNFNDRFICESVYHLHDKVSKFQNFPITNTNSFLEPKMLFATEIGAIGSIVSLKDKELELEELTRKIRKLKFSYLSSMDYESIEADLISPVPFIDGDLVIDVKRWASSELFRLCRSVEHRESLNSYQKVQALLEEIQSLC
T2 sequence (O14122 whole entry, chain 4 of 3): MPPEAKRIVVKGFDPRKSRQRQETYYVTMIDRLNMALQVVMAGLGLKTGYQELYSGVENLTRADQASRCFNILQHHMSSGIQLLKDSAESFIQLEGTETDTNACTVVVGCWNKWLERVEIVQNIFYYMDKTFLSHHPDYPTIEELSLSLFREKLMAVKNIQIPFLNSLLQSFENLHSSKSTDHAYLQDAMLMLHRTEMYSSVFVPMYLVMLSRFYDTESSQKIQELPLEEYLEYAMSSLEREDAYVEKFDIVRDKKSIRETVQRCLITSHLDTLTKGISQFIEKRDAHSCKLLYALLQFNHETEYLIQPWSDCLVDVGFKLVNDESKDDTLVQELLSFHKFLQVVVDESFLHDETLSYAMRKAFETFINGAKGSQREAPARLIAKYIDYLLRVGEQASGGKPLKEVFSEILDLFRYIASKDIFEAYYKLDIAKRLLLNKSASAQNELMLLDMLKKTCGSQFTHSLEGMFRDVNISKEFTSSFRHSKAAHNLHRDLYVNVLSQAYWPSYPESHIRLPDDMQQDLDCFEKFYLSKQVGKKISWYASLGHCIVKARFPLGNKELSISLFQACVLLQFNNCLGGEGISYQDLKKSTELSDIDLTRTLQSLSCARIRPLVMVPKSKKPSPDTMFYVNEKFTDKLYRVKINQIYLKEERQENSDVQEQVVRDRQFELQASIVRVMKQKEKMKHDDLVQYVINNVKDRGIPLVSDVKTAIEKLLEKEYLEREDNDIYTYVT

Binder | binding result (6×His-MBP-Raf1) | binding result [1]
B1 | binds | binds
B2 | binds | 
